Values quoted from earlier work in article PMC2656448.
pKd: −log10 of the molar value.

Molecular target: Histone H3 (H3K4me0) (Homo sapiens) (UniProt P68431)

For AIRE PHD1 (from UniProt O43918), the pKd is given as 5.30.
